Results reported in patent US20240301052A1 (LANOVA MEDICINES DEVELOPMENT, published 2024).

T1: human SLC34A2 (human, UniProt O95436 1-690)
T1 sequence (looked up): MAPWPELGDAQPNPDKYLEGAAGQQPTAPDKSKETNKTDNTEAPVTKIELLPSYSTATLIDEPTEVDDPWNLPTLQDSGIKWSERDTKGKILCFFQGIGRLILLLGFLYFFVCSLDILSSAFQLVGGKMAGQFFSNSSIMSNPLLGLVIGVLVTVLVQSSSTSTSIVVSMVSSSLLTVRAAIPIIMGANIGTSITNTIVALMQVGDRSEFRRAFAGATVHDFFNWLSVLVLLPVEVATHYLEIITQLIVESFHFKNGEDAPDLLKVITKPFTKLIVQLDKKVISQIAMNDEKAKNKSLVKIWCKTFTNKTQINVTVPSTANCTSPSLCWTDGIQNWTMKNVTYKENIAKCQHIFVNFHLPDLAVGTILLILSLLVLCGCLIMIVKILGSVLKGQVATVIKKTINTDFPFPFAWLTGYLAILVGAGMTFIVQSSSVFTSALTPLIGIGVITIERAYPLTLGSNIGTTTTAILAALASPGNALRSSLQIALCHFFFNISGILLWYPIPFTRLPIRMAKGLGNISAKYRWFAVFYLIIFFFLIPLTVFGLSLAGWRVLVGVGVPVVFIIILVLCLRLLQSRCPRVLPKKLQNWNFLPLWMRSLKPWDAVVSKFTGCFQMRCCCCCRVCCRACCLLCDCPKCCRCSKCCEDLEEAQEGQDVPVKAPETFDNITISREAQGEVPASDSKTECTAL

T2: mouse SLC34A2 (mouse, UniProt Q9DBP0 1-697)
T2 construct: whole, on cells
T2 sequence (looked up): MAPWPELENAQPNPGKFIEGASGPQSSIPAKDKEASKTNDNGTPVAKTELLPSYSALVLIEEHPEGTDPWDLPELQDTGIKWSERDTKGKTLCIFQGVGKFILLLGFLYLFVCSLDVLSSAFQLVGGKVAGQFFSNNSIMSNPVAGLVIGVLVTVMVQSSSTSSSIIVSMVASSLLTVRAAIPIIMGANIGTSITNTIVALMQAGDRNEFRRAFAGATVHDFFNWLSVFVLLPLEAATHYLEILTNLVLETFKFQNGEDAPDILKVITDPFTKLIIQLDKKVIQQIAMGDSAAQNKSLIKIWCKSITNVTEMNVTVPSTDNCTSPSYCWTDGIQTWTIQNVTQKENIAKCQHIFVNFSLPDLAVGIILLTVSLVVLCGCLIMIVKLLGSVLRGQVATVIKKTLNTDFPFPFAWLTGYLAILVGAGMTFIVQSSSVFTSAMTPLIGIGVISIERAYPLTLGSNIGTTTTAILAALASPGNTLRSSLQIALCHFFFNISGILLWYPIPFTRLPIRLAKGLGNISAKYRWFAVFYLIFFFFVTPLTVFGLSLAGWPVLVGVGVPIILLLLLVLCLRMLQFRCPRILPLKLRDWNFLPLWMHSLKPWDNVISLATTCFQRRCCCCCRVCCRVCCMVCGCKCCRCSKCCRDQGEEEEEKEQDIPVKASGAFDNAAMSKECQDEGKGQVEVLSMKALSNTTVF

T3: Cynomolgus SLC34A2 (Cynomolgus, UniProt A0A2K5UHY1 1-690)
T3 construct: whole, on cells; also called Cyno SLC34A2
T3 sequence: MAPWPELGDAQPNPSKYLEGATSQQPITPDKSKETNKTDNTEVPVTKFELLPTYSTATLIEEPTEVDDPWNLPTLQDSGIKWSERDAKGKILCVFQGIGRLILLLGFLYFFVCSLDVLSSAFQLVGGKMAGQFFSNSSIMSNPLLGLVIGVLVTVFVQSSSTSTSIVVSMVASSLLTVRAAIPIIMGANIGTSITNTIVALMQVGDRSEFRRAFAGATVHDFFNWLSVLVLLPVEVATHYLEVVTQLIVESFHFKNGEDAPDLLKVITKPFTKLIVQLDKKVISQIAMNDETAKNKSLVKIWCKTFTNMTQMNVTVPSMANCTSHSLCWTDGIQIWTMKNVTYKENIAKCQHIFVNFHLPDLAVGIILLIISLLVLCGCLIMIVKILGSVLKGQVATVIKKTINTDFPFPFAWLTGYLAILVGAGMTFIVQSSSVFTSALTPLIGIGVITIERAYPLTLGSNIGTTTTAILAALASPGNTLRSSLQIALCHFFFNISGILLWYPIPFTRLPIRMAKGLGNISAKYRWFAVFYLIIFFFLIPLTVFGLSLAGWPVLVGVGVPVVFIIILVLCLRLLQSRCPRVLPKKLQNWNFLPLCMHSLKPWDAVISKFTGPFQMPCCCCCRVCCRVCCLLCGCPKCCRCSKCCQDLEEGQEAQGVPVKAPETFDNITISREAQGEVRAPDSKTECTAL


What was measured:
human SLC34A2 [1] = target: T1, human SLC34A2; test: cell-based or functional assay
mouse SLC34A2 = target: T2, mouse SLC34A2; test: FACS, HEK293/Mouse SLC34A2 cells
Cynomolgus SLC34A2 = target: T3, Cynomolgus SLC34A2; test: FACS, cells expressing Cynomolgus SLC34A2
human SLC34A2 [2] = target: T1, human SLC34A2; test: cell-based or functional assay; remark: listed apart in the source
human SLC34A2 [3] = target: T1, human SLC34A2; test: cell-based or functional assay; remark: listed apart in the source

ADCC-HEK293 (human SLC34A2 [1])	ADCC-OVCAR3 (human SLC34A2 [1])	EC50 (mouse SLC34A2)	EC50 (Cynomolgus SLC34A2)	Top (MFI) (Cynomolgus SLC34A2)	ADCC reporter EC50 (human SLC34A2 [2])	ADCC reporter Top (MFI) (human SLC34A2 [2])	Binder	Cytotoxic Effect - MDAH-2774 (human SLC34A2 [1])	Cytotoxic Effect - OVCAR3 (human SLC34A2 [1])	cytotoxicity EC50 (human SLC34A2 [3])	cytotoxicity Inhibition % (human SLC34A2 [3])
0.52 nM	0.3 nM	5.38 nM					63A11D5B4.p1.z9 hIgG1 (antibody, V domains shown, humanized hIgG1) VH: QVQLVQSGAEVVKPGASVKMSCKTSGYTFITYNMHWVRQAPGQGLEWIGAIYPGSGDTSYNQKFKGRVTLTADKSTSTAYMELSSLRSEDTAVYYCSISTIITTGAVDYWGQGTLVTVSS VL: DIQMTQSPSSLSASVGDRVTITCKASQDVGTAVAWYQQKPGKVPKLLIYWTSTRHTGVPSRFSGSGSGTDFTLTISSLQPEDVATYYCQQYSRIPLTFGGGTKVEIK	1.5 nM	0.06 nM		
			5.33 nM	3510 MFI	4.6 nM	216000 MFI	xi63A11D5B4 hIgG1 (antibody, V domains shown, chimeric, hIgG1) VH: QVQLQQPGAELVKPGASVKMSCRTSGYTFITYNMHWVKQTPGQGREWIGAIYPGNGDTSYNQKFKGKATLTADKSSSTAYMQLNSLTSEDSAVYYCSISTIITTGAVDYWGQGTSVTVAS VL: DIVMTQSHKFMSTSVGDRVSITCKASQDVGTAVAWYQQKAGQSPKLLIYWTSTRHTGVPDRFTGSGSGTDFTLIIRSLQSEDLADYFCQQYSRIPLTFGSGTKLEIK			0.66 nM	99%
			1.08 nM	4080 MFI	3.1 nM	487000 MFI	xi30H9B8F9 hIgG1 (antibody, V domains shown, chimeric, hIgG1) VH: QVQLQQPGAELVKPGASVKMSCKTSGYTFTTNNMHWVKQTPGQGLEWIGAIYPGNGATAYNQKFKGKATLTADKSSSTAYMQLSSLTSEASAVYYCARGMYGHGAMDYWGQGTSVIVSS VL: DIVMTQSHKFMSRSVGDRVRITCKASQDVGTAVAWYQQKPGQSPKLLIYWATTRHSGVPDRFTGSGSGTDFIFTISNVQSEDLADYFCQQYSSNPLTFGAGTKLELK			0.84 nM	91.7%
1.4 nM	0.16 nM	2.06 nM					30H9B8F9.p1.z5 hIgG1 (antibody, V domains shown, humanized hIgG1) VH: QVQLVQSGAEVKKPGASVKVSCKTSGYTFTTNNMHWVRQAPGQGLEWIGAIYPGSGATAYNQKFKGRVTMTADTSTSTVYMELSSLRSEDTAVYYCARGMYGHGAMDYWGQGTLVTVSS VL: DIQLTQSPSFLSASVGDRVTITCKASQDVGTAVAWYQQKPGKAPKLLIYWATTRHSGVPSRFSGSGSGTEFTLTISSLQPEDFATYYCQQYSSNPLTFGQGTKLEIK	0.21 nM	0.02 nM		
			9.11 nM	2430 MFI	2.8 nM	215000 MFI	xi91C9F1 hIgG1 (antibody, V domains shown, chimeric, hIgG1) VH: EVQLQQSGPELVKPGTSVKISCKTSGFFFTEYIIHWVKQSHGRSLEWIGGIIPNNGVTNYKQNFRGKAALTADKSSNTAYMELRSLTSEDSAVYYCARWRNGYYSAMDSWGQGTSVTVSS VL: DIVVTQSHKFMSTSLGDRVSITCTASQDVGTAVAWYQQKPGHSPKLLIYWASTRHTGVPERFTGSGSGTDFTLTITNVQSEDLADYFCQQYRTSPLTFGVGTKLELK			0.8 nM	97.4%
0.75 nM	0.15 nM	3.34 nM					91C9F1.p1.z7 hIgG1 (antibody, V domains shown, humanized hIgG1) VH: QVQLVQSGAEVKKPGSSVKVSCKTSGFFFTEYIIHWVRQAPGQGLEWIGGIIPNNDVTNYKQNFRGRVTLTADKSTSTAYMELSSLRSEDTAVYYCARWRNAYYSAMDSWGQGTTVTVSS VL: DIQVTQSPSSLSTSVGDRVTITCTASQDVGTAVAWYQQKPGKSPKLLIYWASTRHTGVPERFTGSGSGTDFTLTISSVQPEDVATYFCQQYRTSPLTFGVGTKVEIK	0.39 nM	0.014 nM		
1.55 nM	0.56 nM	5.74 nM					62G10E4G8.p3.z15 hIgG1 (antibody, V domains shown, humanized hIgG1) VH: QVQLVQSGAEVVKPGASVKMSCKASGYTFPSYITHWVKQAPGQGLEWIGAIYPGNADTSYIQKFKGRATLTADKSTSTAYMELSSLRSEDTAVYYCARGTYGTSAWFTYWGQGTLVTVSS VL: EIVLTQSPATLSVSPGERATLSCRARQNIGNNLYWYQQKPGQSPRLLIKYASQSISGIPSRFSGSGSGTDFTLTISSLQSEDFAVYFCQQSFSWPLTFGQGTKLEIK	0.24 nM	0.025 nM		
			3.33 nM	4020 MFI	4.8 nM	542000 MFI	xi62G10E4G8 hIgG1 (antibody, V domains shown, chimeric, hIgG1) VH: QVQLQQSGAEVVKPGASVKMSCKASGYTFPSYITHWVKQTPGQGLEWIGAIYPGNGDTSYIQKFKGKATLTADKSSSTAYMQLSSLTSEDSAVYYCARGTYGTSAWFTYWGQGTLVTVSA VL: DIVLTQSPATLSVTPGDSVSLSCRARQNIGNNLYWYQQKSHESPRLLIKYASQSISGIPSRFSGSGSGTDFTLTINSVETEDFGVYFCQQSFSWPLTFGAGTKLELK			0.42 nM	97.2%
